{
  "source": "patent US20100310561A1",
  "about": "(Boehringer Ingelheim, published 2010)",
  "key": {"[1]": {"biological_target": "T1, human natriuretic peptide receptor A (NPRA) (human, UniProt P16066 33-1061)", "T1 construct": "whole, on cells; also called hNPRA; Human NPRA", "T1 sequence (looked up)": "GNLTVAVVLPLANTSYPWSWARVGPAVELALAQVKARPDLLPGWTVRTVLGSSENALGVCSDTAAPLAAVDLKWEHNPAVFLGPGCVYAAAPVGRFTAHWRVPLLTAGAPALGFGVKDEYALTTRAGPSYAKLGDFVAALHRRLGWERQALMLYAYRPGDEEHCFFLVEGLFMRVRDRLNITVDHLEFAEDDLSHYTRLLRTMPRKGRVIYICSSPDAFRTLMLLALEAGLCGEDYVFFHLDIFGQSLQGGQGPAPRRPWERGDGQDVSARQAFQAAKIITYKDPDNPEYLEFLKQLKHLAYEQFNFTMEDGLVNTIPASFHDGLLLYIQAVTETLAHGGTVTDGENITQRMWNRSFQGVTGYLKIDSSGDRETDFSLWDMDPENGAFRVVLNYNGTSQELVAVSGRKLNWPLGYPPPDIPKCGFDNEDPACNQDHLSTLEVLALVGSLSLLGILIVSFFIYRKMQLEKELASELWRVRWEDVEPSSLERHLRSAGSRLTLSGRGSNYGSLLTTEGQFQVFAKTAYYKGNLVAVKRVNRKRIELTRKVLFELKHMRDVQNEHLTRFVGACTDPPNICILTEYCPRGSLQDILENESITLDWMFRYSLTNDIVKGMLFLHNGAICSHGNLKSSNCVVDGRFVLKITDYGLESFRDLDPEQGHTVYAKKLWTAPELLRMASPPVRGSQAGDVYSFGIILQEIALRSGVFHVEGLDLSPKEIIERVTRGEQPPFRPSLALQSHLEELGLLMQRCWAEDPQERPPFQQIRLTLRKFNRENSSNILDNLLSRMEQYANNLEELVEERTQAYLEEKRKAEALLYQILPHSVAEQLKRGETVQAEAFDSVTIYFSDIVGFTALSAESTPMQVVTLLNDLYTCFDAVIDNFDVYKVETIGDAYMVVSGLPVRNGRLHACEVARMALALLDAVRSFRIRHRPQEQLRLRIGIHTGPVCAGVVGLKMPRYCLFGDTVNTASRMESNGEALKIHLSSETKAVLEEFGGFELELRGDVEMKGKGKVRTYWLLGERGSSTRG", "assay": "competition with 125I-labeled ANP on human NPRA transfected HEK293 cells; relative to Construct 1", "procedure": "(§1) Plates were washed using vacuum filtration and allowed to dry. Scintillant was added and the plates were counted on a TopCount Scintillation counter. Curves were fit using XLfit4.2 and IC₅₀ values (Table 8) were determined using the Dose Response One Site Model 205, [4 parameter fit: y=A+((B-A)/(1+((C/x)̂D)))]."}, "[2]": {"biological_target": "T1, human natriuretic peptide receptor A …", "assay": "competition with 125I-labeled ANP on human NPRA transfected HEK293 cells; Ki=IC50/[1+([L]/Kd)]", "procedure": "Plates were washed with ice cold buffer by vacuum filtration and allowed to dry. Scintillant was added and the plates were counted on a TopCount Scintillation counter.\nas §1"}, "[3]": {"biological_target": "T1, human natriuretic peptide receptor A …", "assay": "competition with 125I-labeled ANP on human NPRA transfected HEK293 cells", "procedure": "as §1"}, "[4]": {"biological_target": "monkey NPRA (monkey)", "assay": "cell-based or functional assay"}, "[5]": {"biological_target": "T1, human natriuretic peptide receptor A …", "assay": "cell-based or functional assay"}, "[6]": {"biological_target": "T2, rat NPRA (rat, UniProt P18910 29-1057)", "T2 sequence (looked up)": "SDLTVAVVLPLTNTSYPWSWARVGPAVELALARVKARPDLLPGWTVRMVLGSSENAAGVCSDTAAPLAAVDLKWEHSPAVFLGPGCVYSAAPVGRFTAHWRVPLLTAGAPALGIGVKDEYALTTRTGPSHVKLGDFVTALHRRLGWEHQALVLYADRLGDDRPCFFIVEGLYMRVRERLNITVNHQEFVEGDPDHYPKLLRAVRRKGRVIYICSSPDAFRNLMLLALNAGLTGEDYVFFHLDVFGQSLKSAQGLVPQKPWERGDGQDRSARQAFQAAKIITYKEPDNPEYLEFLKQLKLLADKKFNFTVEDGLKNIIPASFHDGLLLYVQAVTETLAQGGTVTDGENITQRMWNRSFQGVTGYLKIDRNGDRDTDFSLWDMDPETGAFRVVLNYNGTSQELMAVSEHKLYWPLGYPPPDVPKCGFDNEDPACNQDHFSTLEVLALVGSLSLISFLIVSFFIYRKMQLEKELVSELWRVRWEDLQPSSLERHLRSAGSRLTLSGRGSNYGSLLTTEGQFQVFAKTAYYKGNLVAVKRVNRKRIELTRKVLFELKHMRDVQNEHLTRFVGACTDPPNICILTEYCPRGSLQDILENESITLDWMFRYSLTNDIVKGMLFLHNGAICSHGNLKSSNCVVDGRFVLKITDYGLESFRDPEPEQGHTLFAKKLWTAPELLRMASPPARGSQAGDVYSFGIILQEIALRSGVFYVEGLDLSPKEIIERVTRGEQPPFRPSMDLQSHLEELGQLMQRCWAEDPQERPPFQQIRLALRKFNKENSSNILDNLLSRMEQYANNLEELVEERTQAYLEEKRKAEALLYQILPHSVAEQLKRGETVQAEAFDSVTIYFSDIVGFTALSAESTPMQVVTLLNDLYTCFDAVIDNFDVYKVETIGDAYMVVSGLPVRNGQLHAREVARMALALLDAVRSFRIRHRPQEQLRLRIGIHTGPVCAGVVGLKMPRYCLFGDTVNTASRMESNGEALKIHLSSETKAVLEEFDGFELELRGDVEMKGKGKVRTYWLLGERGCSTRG", "assay": "cell-based or functional assay"}, "[7]": {"biological_target": "T3, canine NPRA (canine, UniProt A0A8I3MHU3 32-1060)", "T3 sequence": "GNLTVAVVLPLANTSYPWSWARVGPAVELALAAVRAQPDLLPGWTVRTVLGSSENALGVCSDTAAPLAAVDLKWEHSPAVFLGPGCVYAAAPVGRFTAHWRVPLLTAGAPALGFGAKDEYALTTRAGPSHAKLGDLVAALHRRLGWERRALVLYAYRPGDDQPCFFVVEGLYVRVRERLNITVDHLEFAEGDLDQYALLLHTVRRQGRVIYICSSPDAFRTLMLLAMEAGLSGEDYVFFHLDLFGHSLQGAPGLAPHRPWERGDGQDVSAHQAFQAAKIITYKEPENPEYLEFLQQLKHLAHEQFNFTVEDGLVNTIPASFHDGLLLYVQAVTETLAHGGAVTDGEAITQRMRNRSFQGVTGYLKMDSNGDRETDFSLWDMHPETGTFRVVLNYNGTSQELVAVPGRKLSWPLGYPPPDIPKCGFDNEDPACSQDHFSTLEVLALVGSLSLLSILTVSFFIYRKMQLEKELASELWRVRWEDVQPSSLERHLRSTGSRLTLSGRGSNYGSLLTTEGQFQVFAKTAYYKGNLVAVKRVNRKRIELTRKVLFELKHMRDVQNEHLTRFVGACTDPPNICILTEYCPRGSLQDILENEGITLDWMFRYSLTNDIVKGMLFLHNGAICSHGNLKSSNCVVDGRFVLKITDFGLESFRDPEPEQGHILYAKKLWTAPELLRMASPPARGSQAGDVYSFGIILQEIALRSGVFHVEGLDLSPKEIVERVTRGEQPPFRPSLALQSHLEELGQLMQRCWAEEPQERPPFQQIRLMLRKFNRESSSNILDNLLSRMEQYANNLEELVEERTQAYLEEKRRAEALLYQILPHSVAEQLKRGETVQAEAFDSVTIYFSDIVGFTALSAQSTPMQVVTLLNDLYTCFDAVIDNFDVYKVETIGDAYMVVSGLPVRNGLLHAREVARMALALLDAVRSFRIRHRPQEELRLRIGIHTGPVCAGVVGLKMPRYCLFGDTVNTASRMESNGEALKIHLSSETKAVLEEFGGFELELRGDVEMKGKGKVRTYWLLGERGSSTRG", "assay": "cell-based or functional assay"}, "[8]": {"biological_target": "T3, canine NPRA", "assay": "cell-based or functional assay", "remark": "listed apart in the source"}},
  "note": "Where no end group is shown, it is not given here.",
  "data": [
    {"binder": "Construct 4, ANPXY-L4-Fc2AB (recombinant) (Fc fusion, also called ANP28-11aa-hFc2) SLRRSSCFGGRMDRIGAQSGLGCNSFRYGGSGGSGGSGGCPPCPAPPVAGPSVFLFPPKPKDTLMISRTPEVTCVVVDVSHEDPEVQFNWYVDGVEVHNAKTKPREEQFNSTFRVVSVLTVVHQDWLNGKEYKCKVSNKGLPAPIEKTISKTKGQPREPQVYTLPPSREEMTKNQVSLTCLVKGFYPSDIAVEWESNGQPENNYKTTPPMLDSDGSFFLYSKLTVDKSRWQQGNVFSCSVMHEALHNHYTQKSLSLSPGK", "values": [
      {"measurement": "Relative Affinity", "setting": "[1]", "result": 4},
      {"measurement": "Ki", "setting": "[2]", "result": 12.3, "unit": "nM"},
      {"measurement": "IC50", "setting": "[3]", "result": 29.3, "unit": "nM"},
      {"measurement": "cGMP EC50 (nM) Monkey NPRA", "setting": "[4]", "result": 18, "unit": "nM"},
      {"measurement": "cGMP EC50 (nM) Human NPRA", "setting": "[5]", "result": 27, "unit": "nM"},
      {"measurement": "cGMP EC50 (nM) Rat NPRA", "setting": "[6]", "result": 57, "unit": "nM"},
      {"measurement": "cGMP EC50 (nM) Dog NPRA", "setting": "[7]", "result": 46, "unit": "nM"}
    ]},
    {"binder": "Construct 5, ANPXY-L6-Fc2AB (recombinant) (Fc fusion, also called ANP28-20aa-hFc2) SLRRSSCFGGRMDRIGAQSGLGCNSFRYGGSGGSGGSGGSGGSGGSGGCPPCPAPPVAGPSVFLFPPKPKDTLMISRTPEVTCVVVDVSHEDPEVQFNWYVDGVEVHNAKTKPREEQFNSTFRVVSVLTVVHQDWLNGKEYKCKVSNKGLPAPIEKTISKTKGQPREPQVYTLPPSREEMTKNQVSLTCLVKGFYPSDIAVEWESNGQPENNYKTTPPMLDSDGSFFLYSKLTVDKSRWQQGNVFSCSVMHEALHNHYTQKSLSLSPGK", "values": [
      {"measurement": "Relative Affinity", "setting": "[1]", "result": 1},
      {"measurement": "Ki", "setting": "[2]", "result": 2, "unit": "nM"},
      {"measurement": "IC50", "setting": "[3]", "result": 4.3, "unit": "nM"},
      {"measurement": "cGMP EC50 (nM) Monkey NPRA", "setting": "[4]", "result": 5, "unit": "nM"},
      {"measurement": "cGMP EC50 (nM) Human NPRA", "setting": "[5]", "result": 6, "unit": "nM"},
      {"measurement": "cGMP EC50 (nM) Rat NPRA", "setting": "[6]", "result": 12, "unit": "nM"},
      {"measurement": "cGMP EC50 (nM) Dog NPRA", "setting": "[7]", "result": 6, "unit": "nM"}
    ]},
    {"binder": "SLRRSSCFGGRMDRIGAQSGLGCNSFRY (ends and bridges not checked; also: also used 125I-labelled as radioligand)", "note": "[human ANP28 peptide (hANP28)]", "values": [
      {"measurement": "cGMP EC50 (nM) Monkey NPRA", "setting": "[4]", "result": 0.5, "unit": "nM"},
      {"measurement": "cGMP EC50 (nM) Dog NPRA", "setting": "[7]", "result": 1.3, "unit": "nM"},
      {"measurement": "Mean EC50 nM, cGMP-caNPRA 293", "setting": "[8]", "result": 1.34, "unit": "nM"}
    ]}
  ]
}
